# Measurements reported in patent US20110189095A1, “CRKL TARGETING PEPTIDES” (The Board of Regents, of the University of Texas System, priority 2008, published 2011).
# B1: exogenous CRKL: recombinant His-tag CRKL protein added exogenously (protein)
# chain: MSSARFDSSDRSAWYMGPVSRQEAQTRLQGQRHGMFLVRDSSTCPGDYVLSVSENSRVSHYIINSLPNRRFKIGDQEFDHLPALLEFYKIHYLDTTTLIEPAPRYPSPPMGSVSAPNLPTAEDNLEYVRTLYDFPGNDAEDLPFKKGEILVIIEKPEEQWWSARNKDGRVGMIPVPYVEKLVRSSPHGKHGNRNSNSYGIPEPAHAYAQPQTTTPLPAVSGSPGAAITPLPSTQNGPVFAKAIQKRVPCAYDKTALALEVGDIVKVTRMNINGQWEGEVNGRKGLFPFTHVKIFDPQNPDENE
# Tested on: DU145 cells
# Assay: Cell proliferation assay (WST-1)
# Format: cell-based, human
# Conditions: protein added exogenously 48 hours after siRNA transfection
# Source text: In contrast, CRKL was not detected in control cell media as shown by immunoprecipitation either with anti-CRKL or with several control antibodies. […] Next, studies were undertaken to determine whether the CRKL secretion had any detectable effect(s) on cell proliferation and migration. […] As an additional control, it was shown that the decrease in cell proliferation could be rescued by exogenous CRKL (FIG. 8D) and only background levels of apoptosis (less than 1%) were detected in the CRKL siRNA knockdown cells or in serum-free medium cultured cells.
# CRKL (mRNA accession # NM_005207), β1 integrin (mRNA accession # NM_002211), and control siRNAs were purchased (Santa Cruz, Ambion and Dharmacon). siRNA oligonucleotides sequences and corresponding manufacturers are summarized in (Table 3). Oligofectamine (Invitrogen) or DharmaFect (Dharmacon) were used to transfect siRNAs into DU145 cells (1-2×10^5 cells per well). The transfected cells were incubated for 48-72 hours prior to processing. […] Transfected cells were harvested and lysed in the presence of protease inhibitors. The tumor-homing phage binding activity was also examined in the CRKL knockdown cells. For rescue experiments, up to 1.5 μg of recombinant CRKL was exogenously added to CRKL siRNA transfected cells. […]
molecule,measurement,value
B1,rescue of decrease in cell proliferation in CRKL siRNA knockdown cells,rescued
